What all share (test): cryo-EM structure
The data set “cryo-EM structure” concerns the molecule itself.
A further data set addresses P22 gp9 tailspike (bacteriophage P22, UniProt P12528 1-667).
For data set [1], the target named is T1, P22 portal protein gp1 in the tail machine purified from virions (bacteriophage P22, UniProt P26744 1-725).
T1 sequence (looked up): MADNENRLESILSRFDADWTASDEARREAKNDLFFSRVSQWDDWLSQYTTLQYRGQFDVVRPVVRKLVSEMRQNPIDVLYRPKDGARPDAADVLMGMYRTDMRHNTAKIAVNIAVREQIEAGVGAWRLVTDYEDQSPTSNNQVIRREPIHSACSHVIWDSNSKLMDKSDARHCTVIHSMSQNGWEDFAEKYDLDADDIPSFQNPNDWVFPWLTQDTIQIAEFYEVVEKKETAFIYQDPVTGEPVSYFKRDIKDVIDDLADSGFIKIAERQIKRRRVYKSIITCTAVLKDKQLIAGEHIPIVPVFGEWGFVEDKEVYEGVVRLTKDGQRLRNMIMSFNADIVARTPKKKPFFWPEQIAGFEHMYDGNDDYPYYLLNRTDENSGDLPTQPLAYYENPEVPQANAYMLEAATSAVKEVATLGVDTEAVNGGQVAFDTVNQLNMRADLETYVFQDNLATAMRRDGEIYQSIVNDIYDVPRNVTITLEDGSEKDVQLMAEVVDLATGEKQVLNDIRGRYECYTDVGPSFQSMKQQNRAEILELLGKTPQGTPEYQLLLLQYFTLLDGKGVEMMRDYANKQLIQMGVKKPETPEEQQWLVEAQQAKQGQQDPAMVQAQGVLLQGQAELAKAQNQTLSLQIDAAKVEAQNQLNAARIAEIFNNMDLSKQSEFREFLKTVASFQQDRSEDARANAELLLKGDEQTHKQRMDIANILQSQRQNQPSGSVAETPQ

Data set [2] addresses T2, P22 assembly-naïve portal, full length His-tagged gp1 (bacteriophage P22), P26744.
T2 chain: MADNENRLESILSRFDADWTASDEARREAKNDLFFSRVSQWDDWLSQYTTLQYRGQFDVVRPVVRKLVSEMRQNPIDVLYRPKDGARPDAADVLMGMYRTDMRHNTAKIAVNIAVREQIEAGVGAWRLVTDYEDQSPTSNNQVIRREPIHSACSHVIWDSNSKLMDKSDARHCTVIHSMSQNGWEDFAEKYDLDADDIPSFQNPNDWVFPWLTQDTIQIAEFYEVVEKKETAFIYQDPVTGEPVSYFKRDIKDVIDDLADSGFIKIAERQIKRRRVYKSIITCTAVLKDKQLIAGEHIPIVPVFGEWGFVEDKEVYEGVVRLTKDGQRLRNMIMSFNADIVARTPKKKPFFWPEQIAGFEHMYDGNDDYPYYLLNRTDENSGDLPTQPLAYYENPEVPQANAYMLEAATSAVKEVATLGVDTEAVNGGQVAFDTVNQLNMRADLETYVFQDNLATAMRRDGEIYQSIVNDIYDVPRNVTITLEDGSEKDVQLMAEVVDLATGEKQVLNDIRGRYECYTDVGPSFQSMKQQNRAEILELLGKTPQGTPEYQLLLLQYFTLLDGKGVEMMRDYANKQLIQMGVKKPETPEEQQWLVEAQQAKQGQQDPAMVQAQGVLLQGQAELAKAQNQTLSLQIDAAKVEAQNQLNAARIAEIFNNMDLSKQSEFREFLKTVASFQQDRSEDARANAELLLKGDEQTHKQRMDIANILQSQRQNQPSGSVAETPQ
Conditions: remark: other sources report otherwise.

“And” between values parts separate entries of the source, which are not always exact repeats. Identical values can stand only once.

B1: P22 gp26 tail needle (natural protein, bacteriophage P22)
chain: MADPSLNNPVVIQATRLDASILPRNVFSKSYLLYVIAQGTDVGAIAGKANEAGQGAYDAQVKNDEQDVELADHEARIKQLRIDVDDHESRITANTKAITALNVRVTTAEGEIASLQTNVSALDGRVTTAENNISALQADYVSKTATTSQSLASPLNVTTSYSVGGKKVLGARQTGWTAATGTANKGVFDADLTFAVSDTYTQSEIQAIANALITERRRTKALEDALRAHGLID
As to B1, the binding result in the data set “cryo-EM structure” was “binds”.

B2: P22 gp4 (natural protein, bacteriophage P22, UniProt P26746 1-166, looked up)
chain: MQIKTKGDLVRAALRKLGVASDATLTDVEPQSMQDAVDDLEAMMAEWYQDGKGIITGYVFSDDENPPAEGDDHGLRSSAVSAVFHNLACRIAPDYALEATAKIIATAKYGKELLYKQTAISRAKRAPYPSRMPTGSGNSFANLNEWHYFPGEQNADSTTPHDEGNG
Take B2: the binding result (with P22 gp9 tailspike; in the data set “cryo-EM structure”; in data set [1]) was “binds” throughout.

B3: P22 assembly-naïve portal, full length His-tagged gp1, P26744 1-725 (natural protein)
chain: MADNENRLESILSRFDADWTASDEARREAKNDLFFSRVSQWDDWLSQYTTLQYRGQFDVVRPVVRKLVSEMRQNPIDVLYRPKDGARPDAADVLMGMYRTDMRHNTAKIAVNIAVREQIEAGVGAWRLVTDYEDQSPTSNNQVIRREPIHSACSHVIWDSNSKLMDKSDARHCTVIHSMSQNGWEDFAEKYDLDADDIPSFQNPNDWVFPWLTQDTIQIAEFYEVVEKKETAFIYQDPVTGEPVSYFKRDIKDVIDDLADSGFIKIAERQIKRRRVYKSIITCTAVLKDKQLIAGEHIPIVPVFGEWGFVEDKEVYEGVVRLTKDGQRLRNMIMSFNADIVARTPKKKPFFWPEQIAGFEHMYDGNDDYPYYLLNRTDENSGDLPTQPLAYYENPEVPQANAYMLEAATSAVKEVATLGVDTEAVNGGQVAFDTVNQLNMRADLETYVFQDNLATAMRRDGEIYQSIVNDIYDVPRNVTITLEDGSEKDVQLMAEVVDLATGEKQVLNDIRGRYECYTDVGPSFQSMKQQNRAEILELLGKTPQGTPEYQLLLLQYFTLLDGKGVEMMRDYANKQLIQMGVKKPETPEEQQWLVEAQQAKQGQQDPAMVQAQGVLLQGQAELAKAQNQTLSLQIDAAKVEAQNQLNAARIAEIFNNMDLSKQSEFREFLKTVASFQQDRSEDARANAELLLKGDEQTHKQRMDIANILQSQRQNQPSGSVAETPQ
As to B3, in data set [2], the stoichiometry N was 11 and 12.

Usually stoichiometry N stands for the number of molecules, sites or subunits per partner or assembly.
